Target: purified HLA-A2.1 molecules (human)

Row | Substance | IC50
1 | HBV Core 18 (HBV core 18-27) peptide […] (peptide; other documents disagree on this pair) | 3 nM
2 | HBV Pol 551-A (native HBV pol 551-559) peptide […] (peptide; other documents disagree on this pair) | 200 nM

Reference: patent US20030220285A1
